Test results taken from paper PMC7226213 (Cancer Science, 2020).
Positions count from the first letter of the chain named.

Columns and labels:
[1] = target: T1, fibroblast growth factor 19 (FGF19), full-length (human, UniProt O95750, biotin (where co-transfected with BirA biotin-protein ligase)); assay: SPR
[2] = target: T1, fibroblast growth factor 19 (FGF19), …; assay: ELISA

T1 sequence (O95750 25-216): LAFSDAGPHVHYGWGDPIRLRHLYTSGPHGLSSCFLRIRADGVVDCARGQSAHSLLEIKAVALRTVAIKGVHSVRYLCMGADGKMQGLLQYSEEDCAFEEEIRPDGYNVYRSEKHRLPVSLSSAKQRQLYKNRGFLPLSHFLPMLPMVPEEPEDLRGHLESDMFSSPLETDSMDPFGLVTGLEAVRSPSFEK

B1: 31A3, human IgG1 Ab (antibody, V domains shown)
VH: not shown
VL: QAGLTQPASVSGSPGQSITISCTGTSSDVGGYNYVSWYQQHPGKAPKLMIYDVSNRPSGVSDRFSGSKSGNTASLTISGLQTEDEADYYCSSYTRSSTLVFGGGTQLTVL
B1: binds [1].

B2: G1A8, human IgG1 Ab (antibody, V domains shown)
VH: not shown
VL: B1 VL with Y93W, T98G
With B2 the “fold increase of affinity over 31A3” value [1] was 27 fold and the “fold slower dissociation rate than 31A3” value [1] was 60 fold.

B3: G1A8-Fab (Fab, V domains shown)
VH: not shown
VL: B1 VL with Y93W, T98G
B3 was tested, and the IC50 [2] was 1.39 nM.
